Like-named read-outs stand apart in the source and are kept apart here. Residues, ends and D or L forms follow the SMILES beside them. *: point of attachment. Cbz = O=C(OCc1ccccc1)*

First the molecules themselves.
T1: NTD of human MFSD7C (Homo sapiens, UniProt Q9UPI3)
T1 construct: Plasmid harboring GST-His-tag-SUMO-NTD (amino acids 1-84); GST-His-tag-SUMO (N, cleaved yes); made in house; host or cells: Escherichia coli Lemo21(DE3)
T1 sequence (Q9UPI3 1-84): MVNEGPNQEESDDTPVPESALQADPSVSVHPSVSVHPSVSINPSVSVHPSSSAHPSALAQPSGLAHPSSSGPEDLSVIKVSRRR

T2: HA-tagged murine MFSD7C (mouse, UniProt Q91X85 1-551)
T2 construct: Expressed by transfection in 293FT / HEK 293T cells; also called HA-MFSD7C; pCMV6-AN-3HA-MFSD7C; not shown: N-terminal HA tag from vector pCMV6-AN-3HA
T2 sequence (looked up): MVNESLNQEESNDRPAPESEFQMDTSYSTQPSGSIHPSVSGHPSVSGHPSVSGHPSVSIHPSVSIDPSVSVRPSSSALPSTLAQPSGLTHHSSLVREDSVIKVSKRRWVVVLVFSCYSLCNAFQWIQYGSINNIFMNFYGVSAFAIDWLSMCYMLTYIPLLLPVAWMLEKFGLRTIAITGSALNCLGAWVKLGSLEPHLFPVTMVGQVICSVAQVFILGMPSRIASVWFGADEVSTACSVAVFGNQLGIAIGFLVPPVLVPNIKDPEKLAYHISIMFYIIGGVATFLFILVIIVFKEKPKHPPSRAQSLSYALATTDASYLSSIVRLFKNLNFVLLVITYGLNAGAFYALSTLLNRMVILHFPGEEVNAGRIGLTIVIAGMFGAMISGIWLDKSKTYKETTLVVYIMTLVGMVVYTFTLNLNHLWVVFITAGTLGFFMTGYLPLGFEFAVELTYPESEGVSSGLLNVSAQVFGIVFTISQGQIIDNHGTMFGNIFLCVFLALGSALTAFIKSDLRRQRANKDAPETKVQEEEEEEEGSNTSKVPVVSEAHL

B1: endogenous HMOX1 of mouse bone marrow-derived macrophages (enzyme, UniProt P14901 1-289, looked up)
chain: MERPQPDSMPQDLSEALKEATKEVHIQAENAEFMKNFQKGQVSREGFKLVMASLYHIYTALEEEIERNKQNPVYAPLYFPEELHRRAALEQDMAFWYGPHWQEIIPCTPATQHYVKRLHEVGRTHPELLVAHAYTRYLGDLSGGQVLKKIAQKAMALPSSGEGLAFFTFPNIDSPTKFKQLYRARMNTLEMTPEVKHRVTEEAKTAFLLNIELFEELQVMLTEEHKDQSPSQMASLRQRPASLVQDTAPAETPRGKPQISTSSSQTPLLQWVLTLSFLLATVAVGIYAM
B2: FLAG-tagged murine HMOX1 (heme oxygenase-1) (enzyme, mouse, UniProt P14901 1-289, looked up)
chain: B1 chain
notes: Expressed by transfection; also called pCMV6-AC-DDK-HMOX1; not shown: C-terminal FLAG (DDK) tag
B3: FLAG-tagged murine CYC1 (other, mouse, UniProt Q9D0M3 85-325, looked up)
chain: SDLELHPPSYPWSHRGLLSSLDHTSIRRGFQVYKQVCSSCHSMDYVAYRHLVGVCYTEEEAKALAEEVEVQDGPNDDGEMFMRPGKLSDYFPKPYPNPEAARAANNGALPPDLSYIVRARHGGEDYVFSLLTGYCEPPTGVSLREGLYFNPYFPGQAIGMAPPIYTEVLEYDDGTPATMSQVAKDVATFLRWASEPEHDHRKRMGLKMLLMMGLLLPLTYAMKRHKWSVLKSRKLAYRPPK
notes: Complex III component; expressed by transfection; also called pCMV6-AC-DDK-Cyc1; not shown: C-terminal FLAG (DDK) tag
B4: FLAG-tagged murine ATP5c1 (other, mouse, UniProt Q91VR2 26-298, looked up)
chain: ATLKDITRRLKSIKNIQKITKSMKMVAAAKYARAERELKPARVYGTGSLALYEKADIKAPEDKKKHLIIGVSSDRGLCGAIHSSVAKQMKNEVAALTAAGKEVMIVGVGEKIKGILYRTHSDQFLVSFKDVGRKPPTFGDASVIALELLNSGYEFDEGSIIFNQFKSVISYKTEEKPIFSLNTIATAETMSIYDDIDADVLQNYQEYNLANLIYYSLKESTTSEQSARMTAMDNASKNASDMIDKLTLTFNRTRQAVITKELIEIISGAAALD
notes: Complex V component; expressed by transfection; also called pCMV6-AC-DDK-ATP5c1; not shown: C-terminal FLAG (DDK) tag
B5: FLAG-tagged murine NDUFA4 (other, mouse, UniProt Q62425 1-82, looked up)
chain: MLRQILGQAKKHPSLIPLFVFIGAGGTGAALYVMRLALFNPDVSWDRKNNPEPWNKLGPNEQYKFYSVNVDYSKLKKEGPDF
notes: Complex IV component; expressed by transfection; also called pCMV6-AC-DDK-Ndufa4; not shown: C-terminal FLAG (DDK) tag
B6: endogenous MFSD7C of mouse bone marrow-derived macrophages (other, UniProt Q91X85 1-551, looked up)
chain: T2 sequence (looked up)

In one assay the target is T1, NTD of human MFSD7C. The assay is described as follows: Isothermal titration calorimetry of NTD binding to heme. The settings on record: ITC, 25° C., 3-site sequential binding model.
In another assay the target is T3, HP motif peptide (Homo sapiens, UniProt Q9UPI3).
T3 construct: a synthetic 14-amino acid HP motif peptide; made in house; host or cells: chemical solid-phase synthesis (Koch Institute Biopolymers & Proteomics Core)
The assay is described as follows: Isothermal titration calorimetry of HP motif peptide binding to heme (one-site model). The note with it: synthetic 14-amino acid HP motif peptide, one-site binding model.

In a further assay the test system is THP-1 cells. The assay is described as follows: Inhibition of heme-stimulated thermogenesis (FPT) in THP-1 cells. In kind it is cell-based, human. The settings on record: 4 μM thapsigargin 2 hours, then 40 μM heme one hour. The procedure: FIGS. 5A-5F show MFSD7C and heme regulate thermogenesis through SERCA2b in THP-1 cells. […] 30 hours later, MG132 was added into half of the cells and the other half was not treated. Another 35 hours later, some cells were treated with 40 μM heme for 1 hour before lysis. Cell lysates were immunoprecipitated with anti-FLAG antibody, and eluted, followed by anti-HA immunoprecipitation and elution. Total cell lysate and elute were subjected to Western blotting and probed with anti-SERCA2b or anti-MFSD7C antibodies. Shown are representative data from one of three experiments. […] 24 hrs later, cells were either not treated or treated with 10 μM MG132 for either 6 or 12 hours. The cells were lysed and subjected to FLAG pull-down and blotted with anti-MFSD7C, anti-SERCA2b and anti-ubiquitin antibodies. Shown are representative data from one of three experiments. […] Parental THP-1 cells were either not treated or treated with heme before lysis. Shown are representative data from one of four experiments. […]
FIGS. 16A-16F show Co-localization of MFSD7C and SERCA2b. […] Co-localization between MFSD7C and SERCA2b was quantified. […] P-values were calculated using unpaired t-test (***p<0.05). […]
In the second approach, we used fluorescent polymeric thermometer (FPT), which we synthesized in-house (see above). […] Then the fluorescence intensities were determined by a flow cytometer.

A further assay addresses T4, MFSD7C and SERCA2b (Mus musculus, UniProt Q91X85).
T4 construct: expressed in transfected cells; called 293T
The assay is described as follows: Co-IP of MFSD7C and SERCA2b in transfected 293T cells. In kind it is cell-based, murine. The note with it: 293T cells in the presence of MG132; none co-precipitated without. Here is the method: (§1) FIGS. 5A-5F show MFSD7C and heme regulate thermogenesis through SERCA2b in THP-1 cells. […] 30 hours later, MG132 was added into half of the cells and the other half was not treated. Another 35 hours later, some cells were treated with 40 μM heme for 1 hour before lysis. Cell lysates were immunoprecipitated with anti-FLAG antibody, and eluted, followed by anti-HA immunoprecipitation and elution. Total cell lysate and elute were subjected to Western blotting and probed with anti-SERCA2b or anti-MFSD7C antibodies. Shown are representative data from one of three experiments. […] 24 hrs later, cells were either not treated or treated with 10 μM MG132 for either 6 or 12 hours. The cells were lysed and subjected to FLAG pull-down and blotted with anti-MFSD7C, anti-SERCA2b and anti-ubiquitin antibodies. Shown are representative data from one of three experiments. […] Parental THP-1 cells were either not treated or treated with heme before lysis. Shown are representative data from one of four experiments. […] Shown are representative data from one of two experiments. […] Cells were washed and treated with 40 μM heme for one hour before flow cytometry. Representative FPT histograms from one of three experiments are shown. […] Shown are representative FPT histograms from one of three experiments. […]

Another assay relates to SERCA2b. The assay is described as follows: SERCA2b level and ubiquitination by pull-down and Western blotting in transfected 293T cells. In kind it is cell-based, murine. Here is the method:
as §1

For assay [1], the target named is endogenous human SERCA2b of THP-1 cells (human) (UniProt P16615). The assay is described as follows: cell-based or functional assay.
endogenous human SERCA2b of THP-1 cells (human), sequence (P16615 whole entry): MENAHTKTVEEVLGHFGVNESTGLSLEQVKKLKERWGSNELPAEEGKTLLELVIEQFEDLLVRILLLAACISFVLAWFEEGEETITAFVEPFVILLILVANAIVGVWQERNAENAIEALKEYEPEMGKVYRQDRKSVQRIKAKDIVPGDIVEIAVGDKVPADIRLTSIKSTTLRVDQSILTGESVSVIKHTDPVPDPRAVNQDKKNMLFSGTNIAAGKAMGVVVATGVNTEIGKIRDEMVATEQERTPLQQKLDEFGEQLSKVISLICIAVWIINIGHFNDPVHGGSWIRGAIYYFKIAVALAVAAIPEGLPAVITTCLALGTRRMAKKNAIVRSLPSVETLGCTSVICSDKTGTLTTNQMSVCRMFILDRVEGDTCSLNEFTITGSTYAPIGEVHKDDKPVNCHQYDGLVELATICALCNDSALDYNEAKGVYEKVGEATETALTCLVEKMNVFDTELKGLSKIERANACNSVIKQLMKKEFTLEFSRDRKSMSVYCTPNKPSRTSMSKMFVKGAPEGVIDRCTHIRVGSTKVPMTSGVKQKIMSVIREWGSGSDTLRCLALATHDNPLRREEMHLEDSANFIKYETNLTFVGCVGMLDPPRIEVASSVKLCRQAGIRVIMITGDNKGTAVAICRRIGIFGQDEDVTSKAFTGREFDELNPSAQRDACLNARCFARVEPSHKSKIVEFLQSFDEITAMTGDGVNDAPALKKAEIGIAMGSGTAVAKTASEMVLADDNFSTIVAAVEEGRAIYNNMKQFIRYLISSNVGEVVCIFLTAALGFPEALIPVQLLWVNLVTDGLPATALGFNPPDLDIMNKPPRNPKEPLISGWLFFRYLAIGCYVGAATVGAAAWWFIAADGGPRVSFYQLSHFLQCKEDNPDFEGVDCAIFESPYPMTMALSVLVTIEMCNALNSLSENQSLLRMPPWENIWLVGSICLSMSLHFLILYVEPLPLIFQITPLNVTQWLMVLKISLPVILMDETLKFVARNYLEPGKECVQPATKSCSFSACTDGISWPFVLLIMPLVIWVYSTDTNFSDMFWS
Assay [2] concerns the target B6. Put plainly: co-IP of endogenous proteins, mouse bone marrow-derived macrophage lysate.
Assay [3] deals with T2, HA-tagged murine MFSD7C. Put plainly: co-IP and Western blot, co-transfected 293FT cells, with or without 10 or 40 µM heme. The procedure: (§2) Co-transfection and immunoprecipitation. For co-IP, HA-tagged MFSD7C was co-transfected with FLAG-tagged HMOX1 (Origene Catalog No. MR203944), CYC1, COX4I1, NDUFA4, ATP5h, ATP5c1 into 293FT cells using TransIT®-LT1 Transfection Reagent (Mirus). Thirty-six hours after transfection, the cells were lysed using cold Lysis Buffer containing 20 mM Tris-HCl (pH 7.4), 150 mM NaCl, 0.1% NP-40, 10% glycerol, proteinase inhibitor (Sigma Catalog No. 4693132001), and phosphatase inhibitors (Sigma Catalog No. 4906845001). The clear supernatants from the lysate were incubated with M2-magnetic beads conjugated with anti-FLAG antibody (Sigma Catalog No. M8823) for 2 hours at 4° C. Then the beads were washed twice and eluted by the 3× FLAG peptides (Sigma Catalog No. F4799).
To determine the effect of heme on MFSD7C interactions with ETC components, HMOX1 or SERCA2b, 293FT cells were transiently transfected with HA-tagged murine MFSD7C and FLAG-tagged murine CYC1, NDUFA4, COX4i1, ATP5h, ATP5c1, HMOX1 or SERCA2b. 35 hrs later, co-transfected cells were incubated with DMSO (vehicle) or 10 μM or 40 μM of heme for one hour before lysis. Cell lysates were precipitated with anti-HA antibody, eluted with HA peptide, further precipitated with anti-FLAG antibody, eluted with FLAG peptide, and then subjected to Western blotting with anti-HA and anti-FLAG antibodies. […]

The target in assay [4] is T2, HA-tagged murine MFSD7C. The assay is described as follows: co-IP and Western blot, co-transfected 293FT cells, without heme (less or very little with 10 or 40 µM heme). The procedure:
as §2
To determine the effect of heme on MFSD7C interactions with ETC components, HMOX1 or SERCA2b, 293FT cells were transiently transfected with HA-tagged murine MFSD7C and FLAG-tagged murine CYC1, NDUFA4, COX4i1, ATP5h, ATP5c1, HMOX1 or SERCA2b. 35 hrs later, co-transfected cells were incubated with DMSO (vehicle) or 10 μM or 40 μM of heme for one hour before lysis. Cell lysates were precipitated with anti-HA antibody, eluted with HA peptide, further precipitated with anti-FLAG antibody, eluted with FLAG peptide, and then subjected to Western blotting with anti-HA and anti-FLAG antibodies. Cells were treated with proteasome inhibitor MG132 for co-IP between MFSD7C and SERCA2b.

Assay [5] has as its target T5, endogenous mouse SERCA2b (ATP2a2) (mouse, UniProt O55143 1-1044).
T5 construct: also called endogenous SERCA2b
Put plainly: co-IP of endogenous proteins, mouse bone marrow-derived macrophages.

T5 sequence (O55143 whole entry): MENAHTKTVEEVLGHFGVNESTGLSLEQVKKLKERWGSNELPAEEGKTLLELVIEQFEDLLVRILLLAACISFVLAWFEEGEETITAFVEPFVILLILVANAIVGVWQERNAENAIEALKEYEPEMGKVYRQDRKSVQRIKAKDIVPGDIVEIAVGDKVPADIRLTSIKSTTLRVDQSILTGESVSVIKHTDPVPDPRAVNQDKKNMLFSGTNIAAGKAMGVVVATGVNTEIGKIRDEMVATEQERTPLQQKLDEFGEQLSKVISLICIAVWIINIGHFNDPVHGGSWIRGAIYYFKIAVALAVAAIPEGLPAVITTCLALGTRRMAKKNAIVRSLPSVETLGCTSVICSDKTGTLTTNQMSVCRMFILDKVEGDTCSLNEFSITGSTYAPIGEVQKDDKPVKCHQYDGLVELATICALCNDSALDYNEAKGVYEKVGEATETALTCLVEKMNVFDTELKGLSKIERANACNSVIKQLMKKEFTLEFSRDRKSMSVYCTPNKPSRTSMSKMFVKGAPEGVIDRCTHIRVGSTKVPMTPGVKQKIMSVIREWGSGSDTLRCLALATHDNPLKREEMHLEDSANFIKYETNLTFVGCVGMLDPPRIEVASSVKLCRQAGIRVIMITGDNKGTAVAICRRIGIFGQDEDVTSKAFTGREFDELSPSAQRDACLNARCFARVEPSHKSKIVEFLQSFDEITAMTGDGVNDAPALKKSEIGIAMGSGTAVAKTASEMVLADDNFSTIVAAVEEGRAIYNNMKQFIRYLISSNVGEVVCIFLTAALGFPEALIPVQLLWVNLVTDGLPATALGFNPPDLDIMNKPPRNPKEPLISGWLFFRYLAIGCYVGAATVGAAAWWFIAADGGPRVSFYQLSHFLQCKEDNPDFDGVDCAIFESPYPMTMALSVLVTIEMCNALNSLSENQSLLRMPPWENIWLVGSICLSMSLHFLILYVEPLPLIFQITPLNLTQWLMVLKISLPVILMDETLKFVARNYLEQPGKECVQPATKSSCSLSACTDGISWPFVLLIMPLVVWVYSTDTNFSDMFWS

As for `C=CC1=C(C)C2=Cc3c(C=C)c(C)c4[n]3[Fe][n]3c(c(C)c(CCC(=O)O)c3=CC3=NC(=C4)C(C)=C3CCC(=O)O)=CC1=N2` [heme], the Kd on NTD of human MFSD7C (two strong of three heme sites on NTD, read-out: KD, two strong binding sites) was roughly 1000 nM; at NTD of human MFSD7C (weaker of three heme sites on NTD, read-out: KD, one weaker site) it was roughly 220000 nM; at HP motif peptide it was roughly 1000 nM.
On to `C/C=C(/C)C(=O)O[C@H]1C(C)=C2[C@H]([C@@H]1OC(=O)CCCCCCC)[C@@](C)(OC(C)=O)C[C@H](OC(=O)CCC)[C@@]1(O)[C@H]2OC(=O)[C@@]1(C)O` [thapsigargin], for which, in the assay with THP-1 cells, the heme-stimulated thermogenesis result is “mostly inhibited”.
On to `CC(C)C[C@@H](C=O)NC(=O)[C@H](CC(C)C)NC(=O)[C@H](CC(C)C)NC(=O)OCc1ccccc1` [MG132] (Cbz-Leu-Leu-Leu-aldehyde), for which the “SERCA2b co-precipitated with MFSD7C” value at MFSD7C and SERCA2b is given as “an appreciable level was co-precipitated with MFSD7C”. Further, the “full-length and ubiquitinated SERCA2b precipitated” value with SERCA2b (10 μM MG132 for 6 or 12 hours, longer treatment) is “more full-length and ubiquitinated SERCA2b was precipitated”. Besides, the “level of SERCA2b detected” value in the assay with SERCA2b (presence vs absence of MG132) is on record as “significantly higher level of SERCA2b was detected”.
In [1], “endogenous human MFSD7C of THP-1 cells (from UniProt Q9UPI3 1-526)” displayed a Pearson's correlation coefficient value (co-localization, THP-1 cells after 40 µM heme for 1 hour) of 0.67 and a Pearson's correlation coefficient value (co-localization, confocal microscopy of THP-1 cells) of 0.89.
Take B1: in assay [2], the binding result is “binds”.
With B2, in the assay with HA-tagged murine MFSD7C [3], the binding result was “binds”.
With B3, the binding result in the assay with HA-tagged murine MFSD7C [4] is on record as “binds”.
For the molecule B4, the binding result with HA-tagged murine MFSD7C [4] was “binds”.
In the case of B5, the binding result with HA-tagged murine MFSD7C [4] is reported as “binds”.
As for B6, the binding result in [5] was “binds”.

These data come from patent US20230313199A1, “TARGET FOR MODULATING BODY MASS” (Massachusetts Institute of Technology, priority 2020, published 2023).
